Results taken from patent US20130156770A1 (published 2013).

Key:
Experiment in all cases: SPR (Biacore)
[1] = target: BC 247-C3 x CD3
[2] = target: BC 244-C6 x CD3
[3] = target: BCMA-107 x CD3

B1: Human BCMA (receptor)
chain: MLQMAGQCSQNEYFDSLLHACIPCQLRCSSNTPPLTCQRYCNASVTNSVKGTNAILWTCLGLSLIISLAVFVLMFLLRKINSEPLKDEFKNTGSGLLGMANIDLEKSRTGDEIILPRGLEYTVEECTCEDCIKSKPKVDSDHCFPLPAMEEGATILVTTKTNDYCKSLPAALSATEIEKSISAR
[1]
  Kd: 400 pM
[2]
  Kd: 300 pM
[3]
  Kd: 34200 pM
